Results: PMC3741208

Key:
[1] = target: bovine α-thrombin (bovine); test: enzyme inhibition kinetics (chromogenic substrate); 1 nM bovine α-thrombin, 0-200 µM Tos-Gly-Pro-Arg-p-nitroanilide, 0-800 nM madanin; 37 °C, 50 mM Tris-HCl pH 8.0, 50 mM NaCl, 1 mg/ml bovine serum albumin; fitted to the competitive inhibition model
[2] = target: bovine α-thrombin (bovine)

Substance	inhibition of thrombin amidolytic activity (%), 1 nM thrombin, 50 µM Tos-Gly-Pro-Arg-p-nitroanilide, 1 µM fragment, after 120 min [2] [%]	prolongation (fold) of thrombin time of human plasma, 10 µM fragment (17 s against 17 s); competition with fibrinogen for thrombin; species of the assay's thrombin not stated (human α-thrombin (human)) [fold]	also measured
madanin-1 (mature, recombinant) (natural protein)			Ki [1]: 55.6 nM; inhibition of thrombin amidolytic activity (%), 1 nM thrombin, 50 µM Tos-Gly-Pro-Arg-p-nitroanilide, 1 µM inhibitor, after 120 min [2]: 43.8%
madanin-1 fragment 1-21 (peptide)	4.6	1	
madanin-1 fragment 22-54 (peptide)	5.77		prolongation (fold) of thrombin time of human plasma, 10 µM fragment (20 s against 17 s); competition with fibrinogen for thrombin; species of the assay's thrombin not stated (human α-thrombin (human)): 1.18 fold
madanin-1 fragment 55-60 (peptide)		1	
madanin-2 (mature, recombinant) (natural protein)			Ki [1]: 31.6 nM; inhibition of thrombin amidolytic activity (%), 1 nM thrombin, 50 µM Tos-Gly-Pro-Arg-p-nitroanilide, 1 µM inhibitor, after 120 min [2]: 47.2%
madanin-2 fragment 1-21 (peptide)	5.83		prolongation (fold) of thrombin time of human plasma, 10 µM fragment (18 s against 17 s); competition with fibrinogen for thrombin; species of the assay's thrombin not stated (human α-thrombin (human)): 1.06 fold
madanin-2 fragment 22-55 (peptide)	6.11		prolongation (fold) of thrombin time of human plasma, 10 µM fragment (18 s against 17 s); competition with fibrinogen for thrombin; species of the assay's thrombin not stated (human α-thrombin (human)): 1.06 fold
madanin-2 fragment 56-61 (peptide)		1	
